Consider 5 sequences from paper PMC6309453.

Data set [1] concerns the target T1, GST-NST2 (Arabidopsis thaliana) (UniProt Q9M274).
T1 sequence: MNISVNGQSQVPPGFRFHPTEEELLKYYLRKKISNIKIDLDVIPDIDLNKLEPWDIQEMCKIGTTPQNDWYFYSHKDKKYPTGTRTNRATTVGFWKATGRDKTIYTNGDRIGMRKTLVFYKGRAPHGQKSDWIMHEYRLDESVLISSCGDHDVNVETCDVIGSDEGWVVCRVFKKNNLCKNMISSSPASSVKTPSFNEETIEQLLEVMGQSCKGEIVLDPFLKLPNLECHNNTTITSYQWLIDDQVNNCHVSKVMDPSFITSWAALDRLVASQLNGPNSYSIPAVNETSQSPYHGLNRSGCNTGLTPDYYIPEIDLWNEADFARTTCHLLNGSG
Nature of the data set: EMSA. The following applies: 10 mM Tris pH 7.5, 50 mM KCl, 1 mM DTT, 2.5% glycerol, 5 mM MgCl2, 0.1% IGEPAL CA-630, 0.05 ug/ul calf thymus DNA, 150 ng protein, 30 min room temperature.

For data set [2], the target named is T2, GST-SND1 (NST3) (Arabidopsis thaliana) (UniProt Q9LPI7).
T2 sequence: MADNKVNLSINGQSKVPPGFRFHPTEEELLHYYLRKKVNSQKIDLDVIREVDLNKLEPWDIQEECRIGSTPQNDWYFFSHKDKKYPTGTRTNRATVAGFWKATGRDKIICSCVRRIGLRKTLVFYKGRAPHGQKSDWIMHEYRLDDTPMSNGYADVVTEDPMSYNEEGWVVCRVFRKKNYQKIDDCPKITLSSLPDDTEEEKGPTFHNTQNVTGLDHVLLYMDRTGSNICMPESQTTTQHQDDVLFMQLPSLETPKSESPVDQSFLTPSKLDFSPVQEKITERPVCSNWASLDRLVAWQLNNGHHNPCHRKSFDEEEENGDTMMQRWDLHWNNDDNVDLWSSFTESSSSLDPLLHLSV
Kind of data set: EMSA. Conditions: 10 mM Tris pH 7.5, 50 mM KCl, 1 mM DTT, 2.5% glycerol, 5 mM MgCl2, 0.1% IGEPAL CA-630, 0.05 ug/ul calf thymus DNA, 150 ng protein, 30 min room temperature. On the technique in general: A gel shift assay detects complexes by their altered migration in electrophoresis.

As for “CCAGATTTGGTAAAGTTTATAAGATACAAAATATTAAGTAAGACTAAAGTAGAAATACATAATAACTTGAAAGCTACTCTAAGTTATACAAATTCTAAAGAACTCAAAAGAATAAC (double strand) [CESA4Bay-C]”, the binding entry in data set [1] and in data set [2] was “binds” throughout.
Consider “GAAAGCTACTCTAAGTTATACAAATTCTAAAGAACTCAAAAGAATAACAAACAGTAGAAGTTGGAAGCTCAAGCAATTAAATTA (double strand) [CESA4Bay-D]”, for which the binding result in data set [1] and in data set [2] was “no binding” in each case.
As for “GAAAGCTACTCTAAGTTATACAAATTCTAAAGAACTCAAAAGAATAACAAACAGTAGAAGTTGGAAGCTCAAGCAATTAAATTA (double strand) [CESA4Sha-D]”, the binding result in data set [1] and in data set [2] was “no binding” each time.
As to “GTTGGAAGCTCAAGCAATTAAATTATATAAAAACACTAACTACACTGAGCTGTCTCCTTCTTCCACCAAATCTTGTTGCTGTCTCTTGAAGCTTTCTTATGACAC (double strand) [CESA4Bay-E]”, the binding result in data set [1] and in data set [2] was “binds” in each case.
For the sequence “GTTGGAAGCTCAAGCAATTAAATTATATAAAAACACTAACTACACTGAGCTGTCTCCTTCTTCCACCAAATCTTGTTGCTGTCTCTTGAAGCTTTCTTATGACAC (double strand) [CESA4Sha-E]”, the binding entry in data set [1] and in data set [2] was “binds” each time.
